Results reported in patent US20260209365A1, “ANTI-COMMON GAMMA CHAIN PROTEINS AND COMPOSITIONS OF MATTER” (SINOMAB BIOSCIENCE LIMITED, priority 2023, published 2026).
One block for each binder: values may come before it.

Experiments:
[1] = biological target: T1, human γc protein (extracellular domain), purified (human (Homo sapiens), UniProt P31785 23-262); test: ELISA, strip coated with 1 µg/ml human γc, antibody in 5-fold dilutions from 10 to 0.00064 µg/ml, OD 450 nm
T1 construct: Either purchased from Sino Biological or in-house generated; also called human common gamma chain; CD132; not shown: which was used i
T1 sequence: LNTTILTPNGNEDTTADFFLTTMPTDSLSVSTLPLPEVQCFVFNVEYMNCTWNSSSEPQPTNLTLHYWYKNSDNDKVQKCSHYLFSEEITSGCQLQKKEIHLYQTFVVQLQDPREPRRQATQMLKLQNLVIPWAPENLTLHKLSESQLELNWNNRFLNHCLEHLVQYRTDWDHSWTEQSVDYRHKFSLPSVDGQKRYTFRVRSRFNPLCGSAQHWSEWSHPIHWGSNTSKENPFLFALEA
Method: (§1) The ELISA strip was coated with 1 μg/ml γc protein from each species. Antibody was diluted 5-fold each from 10 μg/ml to 0.00064 μg/ml.
(§2) Humanized antibodies with back-mutation (hSM-05A and hSM-05E) were tested in the following assays. Binding affinities were investigated in the ELISA assays.

[2] = biological target: T2, rabbit γc protein (extracellular domain), purified (rabbit (Oryctolagus cuniculus)); test: ELISA, strip coated with 1 µg/ml rabbit γc, antibody in 5-fold dilutions from 10 to 0.00064 µg/ml, OD 450 nm
T2 construct: also called rabbit (Oryctolagus cuniculus) γc
T2 chain: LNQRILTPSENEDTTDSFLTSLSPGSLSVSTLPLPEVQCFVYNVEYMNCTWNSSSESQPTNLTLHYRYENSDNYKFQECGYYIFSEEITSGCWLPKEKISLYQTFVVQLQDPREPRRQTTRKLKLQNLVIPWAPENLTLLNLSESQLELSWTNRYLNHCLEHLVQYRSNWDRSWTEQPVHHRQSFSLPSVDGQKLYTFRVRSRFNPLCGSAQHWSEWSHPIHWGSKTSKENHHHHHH
Method: as §1

[3] = biological target: T3, chimpanzee γc protein (extracellular domain), purified (chimpanzee (Pan troglodytes), UniProt P31785 23-262); test: ELISA, strip coated with 1 µg/ml chimpanzee γc, antibody in 5-fold dilutions from 10 to 0.00064 µg/ml, OD 450 nm
T3 construct: also called chimpanzee (Pan troglodytes) γc
T3 sequence: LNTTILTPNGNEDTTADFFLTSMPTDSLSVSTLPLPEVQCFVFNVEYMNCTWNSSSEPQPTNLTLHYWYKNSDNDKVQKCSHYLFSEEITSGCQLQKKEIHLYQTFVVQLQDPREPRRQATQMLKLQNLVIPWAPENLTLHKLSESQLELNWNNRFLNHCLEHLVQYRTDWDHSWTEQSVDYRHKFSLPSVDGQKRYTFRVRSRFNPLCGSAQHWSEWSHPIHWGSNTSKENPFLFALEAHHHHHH
Method: as §1

[4] = biological target: T4, common marmoset γc protein (extracellular domain), purified (common marmoset (Callithrix jacchus), UniProt P31785 26-262 (human entry)); test: ELISA, strip coated with 1 µg/ml common marmoset γc, antibody in 5-fold dilutions from 10 to 0.00064 µg/ml, OD 450 nm
T4 construct: also called common marmoset (Callithrix jacchus) γc
T4 chain: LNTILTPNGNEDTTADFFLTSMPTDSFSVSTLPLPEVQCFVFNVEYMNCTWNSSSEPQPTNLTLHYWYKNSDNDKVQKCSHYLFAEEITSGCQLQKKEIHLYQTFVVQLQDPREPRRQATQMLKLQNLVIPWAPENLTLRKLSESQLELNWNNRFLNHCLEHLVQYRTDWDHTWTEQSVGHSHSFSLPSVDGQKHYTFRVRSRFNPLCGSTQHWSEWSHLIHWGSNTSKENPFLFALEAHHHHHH
Method: as §1, §2

[5] = biological target: T5, cynomolgus γc protein (extracellular domain), purified (cynomolgus (Macaca fascicularis), UniProt P31785 23-254 (human entry)); test: ELISA, strip coated with 1 µg/ml cynomolgus γc, antibody in 5-fold dilutions from 10 to 0.00064 µg/ml, OD 450 nm; curve rises to about 1.6 at 10 µg/ml, no upper plateau
T5 construct: Purchased from Sino Biological or in-house; also called cynomolgus (Macaca fascicularis) γc
T5 chain: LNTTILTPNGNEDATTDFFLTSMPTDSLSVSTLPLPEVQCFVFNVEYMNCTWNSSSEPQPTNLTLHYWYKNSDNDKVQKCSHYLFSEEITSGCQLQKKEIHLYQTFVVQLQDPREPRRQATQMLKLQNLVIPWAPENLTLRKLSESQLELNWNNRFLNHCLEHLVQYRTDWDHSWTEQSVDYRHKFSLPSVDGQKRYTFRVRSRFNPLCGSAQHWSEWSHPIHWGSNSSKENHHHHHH
Method: as §1, §2

[6] = biological target: T6, rhesus γc protein (extracellular domain), purified (rhesus (Macaca mulatta), UniProt P31785 23-254 (human entry)); test: ELISA, strip coated with 1 µg/ml rhesus γc, antibody in 5-fold dilutions from 10 to 0.00064 µg/ml, OD 450 nm; curve near baseline up to about 0.4 µg/ml, rises to about 0.8 at 10 µg/ml, no upper plateau
T6 construct: also called rhesus (Macaca mulatta) γc
T6 chain: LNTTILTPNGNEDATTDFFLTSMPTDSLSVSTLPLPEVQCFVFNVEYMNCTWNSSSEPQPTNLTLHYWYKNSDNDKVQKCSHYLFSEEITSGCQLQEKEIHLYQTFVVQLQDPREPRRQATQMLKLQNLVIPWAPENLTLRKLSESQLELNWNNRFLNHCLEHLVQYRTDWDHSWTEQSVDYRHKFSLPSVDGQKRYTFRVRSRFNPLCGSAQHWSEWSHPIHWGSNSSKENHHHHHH
Method: as §1, §2

[7] = biological target: T3, chimpanzee γc protein (extracellular …); test: ELISA, strip coated with 1 µg/ml chimpanzee γc, antibody in 5-fold dilutions from 10 to 0.00064 µg/ml, OD 450 nm; sigmoid curve reaching about 1.4
Method: (§3) More particularly, FIG. 3A presents the binding curve of SM-05A and FIG. 3B presents the bin ding curve of SM-05E. In each example, the ELISA strip was coated with 1 μg/ml γc protein from each species and antibody was diluted 5-fold each from 10 μg/ml to 0.00064 μg/ml.
(§4) Selected clones of full-length antibodies were evaluated by ELISA to access the binding specificity.

[8] = biological target: T1, human γc protein (extracellular …); test: ELISA, strip coated with 1 µg/ml human γc, antibody in 5-fold dilutions from 10 to 0.00064 µg/ml, OD 450 nm; sigmoid curve with plateau about 1.55
Method: as §3, §4

[9] = biological target: T5, cynomolgus γc protein (extracellular …); test: ELISA, strip coated with 1 µg/ml cynomolgus γc, antibody in 5-fold dilutions from 10 to 0.00064 µg/ml, OD 450 nm; curve stays near baseline up to about 0.4 µg/ml and rises to about 1.35 at 10 µg/ml, no upper plateau
Method: as §3, §4

[10] = biological target: T1, human γc protein (extracellular …); test: ELISA, strip coated with 1 µg/ml human γc, antibody in 5-fold dilutions from 10 to 0.00064 µg/ml, OD 450 nm; sigmoid curve with plateau about 1.6
Method: as §3, §4

[11] = biological target: T3, chimpanzee γc protein (extracellular …); test: ELISA, strip coated with 1 µg/ml chimpanzee γc, antibody in 5-fold dilutions from 10 to 0.00064 µg/ml, OD 450 nm; curve rises to about 1.5 at the last point shown
Method: as §3, §4

[12] = biological target: T5, cynomolgus γc protein (extracellular …); test: ELISA, strip coated with 1 µg/ml cynomolgus γc, antibody in 5-fold dilutions from 10 to 0.00064 µg/ml, OD 450 nm; curve stays near baseline up to about 0.08 µg/ml and rises to about 1.65 at 10 µg/ml, no upper plateau
Method: as §3, §4

- EC50 [1]: 0.02 µg/mL
- binding result [2]: no binding (tested: 10 µg/ml)
- EC50 [3]: 0.17 µg/mL
- EC50 [4]: 0.17 µg/mL
- EC50 [5]: 5.78 µg/mL
- EC50 [6]: 6.3 µg/mL
B1: hSM-05E, humanized anti-γc antibody with back-mutation (antibody, V domains shown)
VH: QVQLVQSGAEVLKPGASVKVSCKASGYTFTEYTMHWVKQARGQRLEWIGGIDPNTGGVTYNQKFKGKATLTTDTSTSTAYMELRNLRSDDTAVYYCARRRRYYGYALDYWGQGTLVTVSS
VL: DIVMTQSPLSLPVTPGEQASISCRSSQSIVHSNGNTYLEWYLQKPGQSPQLLIYKVSNRFSGVPDRFSGSGSGTDFTLKISRVEAEDVGVYFCSQSTHVPFMFGSGTKLEIKR
notes: Full-length humanized antibody; also called humanized SM-05E; hbSM-05E

- EC50 [7]: 0.17 µg/mL
- EC50 [8]: 0.02 µg/mL
- EC50 [9]: 14.5 µg/mL
B2: SM-05A full-length chimeric anti-γc antibody (antibody, V domains shown)
VH: EVQLQQSGPELVKPGASVKISCKTSGYTFTEYTMHWVKQSHGKSLEWIGGIDPYNGGATYNQRFKGKATLTVDKSSSTAYMEFRSLTSEDSAVYYCARRRLYYGNALDYWGQGTSVTVSS
VL: DVLMTQTPLSLPVSLGDQASISCRSSQSLVHSNGNTYLHWYLQRPGQSPKLLIYKVSSRFSGVPDRFSGSGSGTDFTLKISRVEAEDLGVYFCSQTTHVPFTFGSGTKLEIKR
notes: Full-length chimeric antibody made in Expi-CHO (mouse variable, human constant regions)

- EC50 [10]: 0.02 µg/mL
- EC50 [11]: 0.17 µg/mL
- EC50 [12]: 6.47 µg/mL
B3: SM-05E full-length chimeric anti-γc antibody (antibody, V domains shown)
VH: EVHLQQSGPELVKPGASVKIFCKTSGYTFTEYTMHWVKQSHGESLEWIGGIDPNTGGVTYNQKFKGKATLTADKSSSTAYMELRSLTSEDSAVYYCARRRRYYGYALDYWGQGTSVTVSS
VL: DVLMTQTPLSLPVSLGDQASISCRSSQSIVHSNGNTYLEWYLQKPGQSPKLLIYKVSNRFSGVPDRFSGSGSGTDFTLKISSVEAEDLGVYFCSQSTHVPFMFGSGTKLEIKR
notes: Full-length chimeric antibody made in Expi-CHO
